The text below walks through data of patent publication US20260265359A1 (Hoffmann-La Roche, published 2026).

Where two headings read alike, the source gives them in different places.

Experiment [1] deals with T1, recombinant human IL-6R (human, UniProt P08887 20-365, limits assumed).
T1 construct: Recombinant protein used in ELISA and as SPR analyte; also called hIL-6R
T1 sequence (looked up): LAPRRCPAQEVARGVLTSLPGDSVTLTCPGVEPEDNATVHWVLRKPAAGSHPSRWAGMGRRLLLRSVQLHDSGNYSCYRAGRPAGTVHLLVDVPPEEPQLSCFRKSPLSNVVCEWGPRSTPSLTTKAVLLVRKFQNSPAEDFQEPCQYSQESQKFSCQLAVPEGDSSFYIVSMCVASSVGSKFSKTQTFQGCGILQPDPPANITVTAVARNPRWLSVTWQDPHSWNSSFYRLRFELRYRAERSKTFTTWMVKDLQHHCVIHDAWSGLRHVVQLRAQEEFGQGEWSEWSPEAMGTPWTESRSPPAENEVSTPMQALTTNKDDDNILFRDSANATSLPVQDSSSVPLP
Nature of the experiment: ELISA on plate-coated recombinant human IL-6R; anti-human IgG1-Fc-HRP, OD450. As to the method: (§1) After non-specific blocking using 1% BSA at 25° C. for 1 hour, a series of dilutions of test antibodies (“Abs”) were added into the coated wells and incubated at 25° C. for 1 hour. The bound Abs were detected using a secondary Ab (goat anti-human IgG1-Fc) conjugated with HRP followed by OD₄₅₀ reading.
(§2) The same ELISA procedure was performed with recombinant human IL-6R. […] Vobarilizumab is a single domain antibody against IL-6R. B781402 and B781405 are bispecific fusion antibodies that inhibit VEGF-A, B, PIGF and IL-6R.
On the technique in general: In an ELISA, binding on a coated surface is turned into a signal by an enzyme label.

For experiment [2], the target named is T1, recombinant human IL-6R. The experiment is described as above. As to the method:
as §1, §2
This is another data set of the same source.

Experiment [3] deals with T1, recombinant human IL-6R. Nature of the experiment: SPR Biacore, 25 C; test antibody captured by anti-human IgG (Fc) on CM5 chip, target protein as analyte; 1:1 model. As to the method:
(§3) SPR Biacore assay was performed at 25° C. with HBS-EP+ as a running buffer. The assay was performed by immobilization of the anti-human IgG (Fc) antibody onto the CM5 sensor chip surface and determined the level of ligand immobilization. […] Test antibodies were injected over the surface of Series S Sensor Chip CM5 as Capture. The analytes (target proteins) were diluted with running buffer into different concentrations and injected over the sensor surface as the association phase for affinity and kinetics measurements. The 1:1 binding model was used to measure the binding affinity and/or kinetics.
(Surface plasmon resonance follows binding to a sensor surface in real time, without labels.)

The target in experiment [4] is T1, recombinant human IL-6R. The experiment is described as above. As to the method:
as §3
This is another data set of the same source.

Experiment [5] addresses T2, human IL-6R overexpressed on engineered CHO-S cells (human, UniProt P08887 20-468).
T2 construct: whole, on cells; also called IL-6R-expressing CHO-S cells
T2 sequence (looked up): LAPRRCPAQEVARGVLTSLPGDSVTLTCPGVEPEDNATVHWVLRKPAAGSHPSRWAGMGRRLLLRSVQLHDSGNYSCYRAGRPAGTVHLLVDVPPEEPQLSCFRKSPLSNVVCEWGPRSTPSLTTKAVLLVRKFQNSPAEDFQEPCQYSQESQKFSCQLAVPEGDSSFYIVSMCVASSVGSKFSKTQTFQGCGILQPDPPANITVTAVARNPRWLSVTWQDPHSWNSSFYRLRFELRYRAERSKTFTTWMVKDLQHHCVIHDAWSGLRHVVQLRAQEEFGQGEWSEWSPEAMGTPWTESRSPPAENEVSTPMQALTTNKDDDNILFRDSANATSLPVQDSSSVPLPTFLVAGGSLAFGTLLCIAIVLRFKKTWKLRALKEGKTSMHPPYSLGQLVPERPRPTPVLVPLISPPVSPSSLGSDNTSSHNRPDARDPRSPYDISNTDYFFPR
Nature of the experiment: FACS competition: antibody with biotinylated human IL-6 and CHO-S cells overexpressing human IL-6R; blocked: IL-6 binding to IL-6R. The source says:
(§4) Vobarilizumab is a single domain antibody (also termed nanobody) against human IL-6R.

The target in experiment [6] is T2, human IL-6R overexpressed on engineered …. The description is as above.
From the text: as §4
The source holds these as a separate data set.

Experiment [7] has as its target T3, human Ang-1-Fc (human, UniProt Q15389 20-498, limits assumed).
T3 construct: not shown: Fc part
T3 sequence (looked up): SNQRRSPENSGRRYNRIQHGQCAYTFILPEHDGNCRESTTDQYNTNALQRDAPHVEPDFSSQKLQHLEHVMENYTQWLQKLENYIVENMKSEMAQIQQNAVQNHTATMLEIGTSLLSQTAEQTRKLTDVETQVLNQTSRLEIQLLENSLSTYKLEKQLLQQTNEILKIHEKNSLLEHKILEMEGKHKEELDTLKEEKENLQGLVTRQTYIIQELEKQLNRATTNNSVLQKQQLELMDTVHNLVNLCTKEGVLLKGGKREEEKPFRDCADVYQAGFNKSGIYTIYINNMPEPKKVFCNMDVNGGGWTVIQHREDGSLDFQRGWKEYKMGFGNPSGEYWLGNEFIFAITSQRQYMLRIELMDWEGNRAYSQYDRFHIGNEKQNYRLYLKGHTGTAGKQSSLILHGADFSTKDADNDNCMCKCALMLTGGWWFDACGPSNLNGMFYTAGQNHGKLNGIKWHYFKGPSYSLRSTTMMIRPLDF
Nature of the experiment: FACS competition: soluble human Tie-2 ECD (positive control) pre-incubated with 2 µg/ml human Ang-1-Fc, then HEK-293 cells overexpressing human Tie-2; blocked: Ang-1-Fc binding to cell-bound Tie-2.

Experiment [8] deals with T3, human Ang-1-Fc. The experiment can be described thus: FACS competition: soluble recombinant hTie-2 (positive control) pre-incubated with 2 µg/ml human Ang-1-Fc, then HEK-293 cells overexpressing human Tie-2; blocked: Ang-1-Fc binding to cell-bound Tie-2.

B1: Vobarilizumab (VHH)
VHH 1: EVQLVESGGGLVQPGGSLRLSCAASGSVFKINVMAWYRQAPGKGRELVAGIISGGSTSYADSVKGRFTISRDNAKNTLYLQMNSLRPEDTAVYYCAFITTESDYDLGRRYWGQGTLVTVSS
VHH 2: QIILTQSPAIMSASLGEEITLTCSATSSVTYVHWYQQKSGTSPKLLIYGTSNLASGVPSRFSGSGSGTFYSLTVSSVEAEDAADYYCHQWNSYPHTFGGGTKLEIK
What is called EC50 is the concentration needed to bring the measured effect to its halfway point. Consider B1, for which the results for the EC50 in experiment [1] and in experiment [2] were 1.39 nM and 1.36 nM, respectively.

B2: Tocilizumab (antibody, V domains shown)
VH: QVQLQESGPGLVRPSQTLSLTCTVSGYSITSDHAWSWVRQPPGRGLEWIGYISYSGITTYNPSLKSRVTMLRDTSKNQFSLRLSSVTAADTAVYYCARSLARTTAMDYWGQGSLVTVSS
VL: DIQMTQSPSSLSASVGDRVTITCRASQDISSYLNWYQQKPGKAPKLLIYYTSRLHSGVPSRFSGSGSGTDFTFTISSLQPEDIATYYCQQGNTLPYTFGQGTKVEIKR
notes: mAb against human IL-6R used as comparator
What is called Kd is the equilibrium constant for the complex coming apart. A word on the koff: it is the rate constant with which the complex falls apart. Usually kon stands for the second-order rate constant of association. As a reminder, the IC50 is the concentration at which inhibition is half-maximal. On to B2, for which the EC50 in experiment [1] turned out to be 0.05 nM; in experiment [2], 0.028 nM. The results for the Kd in experiment [3] and in experiment [4] were 1.1 nM and 1.4 nM, respectively. Further, the koff in experiment [3] turned out to be 0.00046 s⁻¹; in experiment [4], 0.000521 s⁻¹. The results for the kon in experiment [3] and in experiment [4] were 420000 M⁻¹ s⁻¹ and 373000 M⁻¹ s⁻¹, respectively. Besides, the 50% inhibitory concentration (IC50) in experiment [5] is 0.756 nM; in experiment [6], 1.82 nM.

B3: hTie2 (receptor)
chain: AMDLILINSLPLVSDAETSLTCIASGWRPHEPITIGRDFEALMNQHQDPLEVTQDVTREWAKKVVWKREKASKINGAYFCEGRVRGEAIRIRTMKMRQQASFLPATLTMTVDKGDNVNISFKKVLIKEEDAVIYKNGSFIHSVPRHEVPDILEVHLPHAQPQDAGVYSARYIGGNLFTSAFTRLIVRRCEAQKWGPECNHLCTACMNNGVCHEDTGECICPPGFMGRTCEKACELHTFGRTCKERCSGQEGCKSYVFCLPDPYGCSCATGWKGLQCNEACHPGFYGPDCKLRCSCNNGEMCDRFQGCLCSPGWQGLQCEREGIQRMTPKIVDLPDHIEVNSGKFNPICKASGWPLPTNEEMTLVKPDGTVLHPKDFNHTDHFSVAIFTIHRILPPDSGVWVCSVNTVAGMVEKPFNISVKVLPKPLNAPNVIDTGHNFAVINISSEPYFGDGPIKSKKLLYKPVNHYEAWQHIQVTNEIVTLNYLEPRTEYELCVQLVRRGEGGEGHPGPVRRFTTASIGLPPPRGLNLLPKSQTTLNLTWQPIFPSSEDDFYVEVERRSVQKSDQQNIKVPGNLTSVLLNNLHPREQYVVRARVNTKAQGEWSEDLTAWTLSDILPPQPENIKISNITHSSAVISWTILDGYSISSITIRYKVQGKNEDQHVDVKIKNATITQYQLKGLEPETAYQVDIFAENNIGSSNPAFSHELVTLPESQAPADLGGGKMLL
notes: also called human Tie-2 ECD; recombinant hTie-2
On to B3, for which the IC50 is 42.9 nM in experiment [7] and 53 nM in experiment [8].
